Our source for the activity values is US20100146651, “MEGANUCLEASE VARIANTS CLEAVING A DNA TARGET SEQUENCE FROM THE HPRT GENE AND USES THEREOF” (CELLECTIS, published 2010).

Numbering of substitutions follows the chain as printed.

What all share (test): cell_activity; CHO chromosomal reporter, maximum
Data set [1] concerns the target T1, HprCH3.3/HprCH3.4 heterodimer (KNSHQS/QRRDI/42A43L + KNTHQS/RYSNN/72T) (synthetic, UniProt P05725;P05725 SEQ:1-163,SEQ:1-163).
T1 chain 1: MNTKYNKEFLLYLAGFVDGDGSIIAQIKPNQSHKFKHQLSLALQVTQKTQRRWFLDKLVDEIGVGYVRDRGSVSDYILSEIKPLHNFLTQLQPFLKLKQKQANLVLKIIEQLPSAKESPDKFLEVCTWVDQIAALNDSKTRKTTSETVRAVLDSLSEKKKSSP
T1 chain 2: T1 chain 1 with S32T, A42T, L43F, Q44R, R68Y, R70S, S72T, D75N, I77N
An excerpt: (§1) To evaluate the cleavage activity of the original and G19S derived mutants a chromosomal reporter system in CHO cells was used (FIG. 20). In this system a single-copy LacZ gene driven by the CMV promoter is interrupted by the HprCH3 site and is thus non-functional. The transfection of the cell line with CHO expression plasmids for HprCH3.3/HprCH3.4 and a LacZ repair plasmid allows the restoration of a functional LacZ gene by homologous recombination. It has previously been shown that double-strand breaks can induce homologous recombination; therefore the frequency with which the LacZ gene is repaired is indicative of the cleavage efficiency of the genomic HprCH3 target site.
(§2) CHO cell lines harbouring the reporter system were seeded at a density of 2×10⁵ cells per 10 cm dish in complete medium (Kaighn's modified F-12 medium (F12-K), supplemented with 2 mM L-glutamine, penicillin (100 UI/ml), streptomycin (100 μg/ml), amphotericin B (Fongizone) (0.25 μg/ml) (INVITROGEN-LIFE SCIENCE) and 10% FBS (SIGMA-ALDRICH CHIMIE). The next day, cells were transfected with Polyfect transfection reagent (QIAGEN). Briefly, 2 μg of lacz repair matrix vector was co-transfected with various amounts of meganucleases expression vectors. After 72 hours of incubation at 37° C., cells were fixed in 0.5% glutaraldehyde at 4° C. for 10 min, washed twice in 100 mM phosphate buffer with 0.02% NP40 and stained with the following staining buffer (10 mM Phosphate buffer, 1 mM MgCl₂, 33 mM K hexacyanoferrate (III), 33 mM K hexacyanoferrate (II), 0.1% (v/v) X-Gal). After, an overnight incubation at 37° C., plates were examined under a light microscope and the number of LacZ positive cell clones counted. The frequency of LacZ repair is expressed as the number of LacZ+ foci divided by the number of transfected cells (5×10⁵) and corrected by the transfection efficiency.

Data set [2] has as its target T2, HprCH3.3 G19S/HprCH3.4 heterodimer (synthetic, UniProt P05725;P05725 SEQ:1-163,SEQ:1-163, G19S in first chain).
T2 sequence 1: T1 chain 1 with G19S
T2 sequence 2: T1 chain 1 with S32T, A42T, L43F, Q44R, R68Y, R70S, S72T, D75N, I77N
From the text: as §1, §2

Data set [3] deals with T3, HprCH3.3/HprCH3.4 G19S heterodimer (synthetic, UniProt P05725;P05725 SEQ:1-163,SEQ:1-163, G19S in second chain).
T3 sequence 1: T1 chain 1
T3 sequence 2: T1 chain 1 with G19S, S32T, A42T, L43F, Q44R, R68Y, R70S, S72T, D75N, I77N
From the text: as §1, §2

B1: HprCH3 (dsDNA)
DNA 1: CGAGATGTCATGAAAGAGATGG
DNA 2: CCATCTCTTTCATGACATCTCG
In the case of B1, the activity in data set [1] was 0.002 LacZ repair frequency; in data set [2], 0.0115 LacZ repair frequency; in data set [3], 0.012 LacZ repair frequency.
